From publication doi:10.1101/774158

What was measured:
[1] = target: CDA-ZnF-KLF1 E321K (mouse) (UniProt P46099); experiment: EMSA
WT-ZnF-KLF1 (mouse) = WT-ZnF-KLF1 (mouse) (UniProt P46099); experiment: EMSA
Sequence of WT-ZnF-KLF1 (mouse) (P46099 275-358): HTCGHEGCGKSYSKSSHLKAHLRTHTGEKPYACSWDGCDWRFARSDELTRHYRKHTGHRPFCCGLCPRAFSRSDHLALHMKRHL

Sequence of CDA-ZnF-KLF1 E321K (mouse) (P46099 275-358 E321K): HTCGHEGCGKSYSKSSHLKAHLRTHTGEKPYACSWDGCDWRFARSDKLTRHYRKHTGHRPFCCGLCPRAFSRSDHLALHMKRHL

beta-globin site
Kd [1]: 238 µM
Kd (WT-ZnF-KLF1 (mouse)): 0.548 µM
